Where a chain is given by its changes, count along the chain named. Names may count otherwise. “Also recorded” adds a separate entry of the source.
B1: (13) Q20A: OSM-GST fusion, alanine for Gln 20 (protein)
chain: AAIGSCSKEYRVLLGQLQKATDLMQDTSRLLDPYIRIQGLDVPKLREHCRERPGAFPSEETLRGLGRRGFLQTLNATLGCVLHRLADLEQRLPKAQDLERSGLNIEDLEKLQMARPNILGLRNNIYCMAQLLDNSDTAEPTKAGRGASQPPTPTPASDAFQRKLEGCRFLHGYHRFMHSVGRVFSKWGESPNRSRR
modifications: left off: a dimerising Fc or GST; large carriers; small tags and cut ends
B2: (20) G120A: OSM-GST fusion, alanine for Gly 120 (protein)
chain: B1 chain with A20Q, G120A
modifications: left off: a dimerising Fc or GST; large carriers; small tags and cut ends
B3: (22) N123A: OSM-GST fusion, alanine for Asn 123 (protein)
chain: B1 chain with A20Q, N123A
modifications: left off: a dimerising Fc or GST; large carriers; small tags and cut ends
B4: (9) Q16A: OSM-GST fusion, alanine for Gln 16 (protein)
chain: B1 chain with Q16A, A20Q
modifications: left off: a dimerising Fc or GST; large carriers; small tags and cut ends
B5: (23) N124A: OSM-GST fusion, alanine for Asn 124 (protein)
chain: B1 chain with A20Q, N124A
modifications: left off: a dimerising Fc or GST; large carriers; small tags and cut ends
B6: (6) L13A: OSM-GST fusion, alanine for Leu 13 (protein)
chain: B1 chain with L13A, A20Q

How the values were obtained:
[1] = test system: OSM-induced sPAP release, HepG2 B6 cells; test: HepG2 B6: OSM-induced sPAP assay; assay type: cell-based, human
Excerpt: A HepG2 cell line (ECACC) was stably transfected with six functional STAT3 response elements (REs) upstream of sPAP (secreted placental alkaline phosphatase) cDNA as described below to form HepG2B6. STAT3 (signal transducer and activator of transcription) is an intermediate in the IL-6 cytokine family […] signalling cascade. Following dimerisation of cell surface receptors STAT3 is phosphorylated and will then bind to DNA REs in the nucleus and activate DNA downstream, in this construct that DNA is sPAP. Thus this line can be driven to produce sPAP by overnight incubation in Oncostatin M.
(§1) HepG2 B6 cells were plated into 96 well plates to a final concentration of 3×10^4 cells per well in 100 μl of media (DMEM (Sigma), 10% HI FCS, 1% non-essential amino acids, 2 mM Glutamine, 500 μg ml^−1 G418, (all from Life Technologies)). Cells were allowed to equilibrate for 48 hours. Putative anti-OSM solid compounds were made up to a stock dilution of 20 mM in DMSO and serially diluted 1:3 in DMSO. This was then further diluted in HepG26B assay media, this is as above media but with 1% heat inactivated FCS, low alkaline phosphatase activity (Life Technologies) substituted for 10% HI FCS. Compounds were diluted 1:3 from a top concentration of […] to a final concentration of 0.09 μM in a final concentration of 1% DMSO. (That is 200, 66.67, 22.22, 7.41, 2.47, 0.82, 0.27, 0.09 and 0 μM). The old media was removed from the wells and replaced with diluted compound also containing 2 ng ml^−1 OSM (R&D Systems), cells were incubated for a further 20 hours. Each dilution was performed in triplicate. 20 μl of media was removed from each well and assayed for sPAP activity using pNPP (p-Nitrophenyl phosphate; Sigma), as a substrate. Endogenous alkaline phosphatase is blocked with L-homoarginine. Optical density of substrate is read at 405-650 nm. Concentration of compound is plotted against OD as a measure of sPAP produced and can be analysed to determine IC50 values.

[2] = test system: TNFα-induced sPAP release, A549 cells; test: A549 cells: TNFα-induced sPAP assay; assay type: cell-based, human
Procedure: This assay used A549 cells that had been stably transfected with a reporter gene, comprising the cytokine responsive region of the E-selectin gene coupled to alkaline phosphatase (Ray et al., Biochem J. 328:707-715, 1997). This transfected cell line can be driven to produce sPAP by overnight incubation with TNFα.
A549 cells were plated into 96 well plates to a final concentration of 5×10^4 cells per well in […] of media. Cells were allowed to equilibrate for 24 hours. Putative anti-OSM solid compounds are made up to a stock dilution of 20 mM in DMSO and serially diluted 1:3 in DMSO. This was then further diluted in media (DMEM, 1% heat inactivated FCS, low alkaline phosphatase activity, 1% non-essential amino acids, 2 mM Glutamine, 500 μg ml^−1 G418, (all from Life Technologies), to give a concentration response of 0.09-200 μM in a final concentration of 1% DMSO. The old media was removed from the wells and replaced with diluted compound also containing 3 ng ml^−1 TNFα (R&D Systems), cells were incubated for a further 20 hours. Each dilution was performed in triplicate. 20 μl of media was removed from each well and assayed for sPAP activity using p-Nitrophenyl phosphate (Sigma), as a substrate. […] Optical density of substrate is read at 405-650 nm. Concentration of compound is plotted against OD as a measure of sPAP produced and can be analysed to determine IC50 values.

gp130-Fc = biological target: T1, gp130-Fc (Homo sapiens, UniProt P40189); test: Competition of OSM-GST with plate-bound wild type OSM for binding to gp130-Fc (ELISA); conditions: for inhibition: at the maximum concentration tested (10 μg/ml)
T1 construct: DNA encoding the extracellular domain of human gp130 was amplified; made in house; host or cells: insect cells (Bac-to-Bac baculovirus) for gp130-Fc; E. coli BLR-DE3 for OSM
T1 sequence (P40189 23-619 limits assumed): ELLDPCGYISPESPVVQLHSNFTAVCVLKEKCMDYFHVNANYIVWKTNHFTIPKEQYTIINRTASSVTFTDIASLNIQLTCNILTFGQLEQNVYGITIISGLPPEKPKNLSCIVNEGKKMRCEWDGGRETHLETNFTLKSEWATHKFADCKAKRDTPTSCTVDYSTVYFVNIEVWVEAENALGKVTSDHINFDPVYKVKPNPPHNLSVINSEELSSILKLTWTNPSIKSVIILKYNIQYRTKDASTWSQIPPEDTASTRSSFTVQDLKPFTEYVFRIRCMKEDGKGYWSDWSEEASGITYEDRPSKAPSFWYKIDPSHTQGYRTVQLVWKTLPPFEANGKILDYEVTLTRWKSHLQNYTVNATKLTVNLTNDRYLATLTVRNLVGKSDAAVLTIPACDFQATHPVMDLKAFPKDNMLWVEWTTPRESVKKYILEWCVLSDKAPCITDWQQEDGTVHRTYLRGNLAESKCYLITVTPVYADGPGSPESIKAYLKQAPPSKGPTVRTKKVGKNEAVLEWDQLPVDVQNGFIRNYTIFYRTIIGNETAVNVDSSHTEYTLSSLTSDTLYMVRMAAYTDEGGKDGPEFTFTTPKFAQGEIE
Procedure: Nunc Immunoplates (F6 Maxisorp, Life Technologies) were coated overnight (4° C.) with wild type OSM (produced according to Example 7a); 50 μl/well, 1 μg/ml in carbonate/bicarbonate buffer pH 9.4). Plates were washed (×6 in PBS 0.05% tween 20, using Skatron Plate washer), tapped dry and blocked to reduce non-specific binding (200 μl/well, 1% BSA/PBS). Following 1 h incubation (room temperature on a shaking platform) the plates were tapped dry and wild type (wt) or mutant OSM-GST from Example 9b added (50 μl/well, 20-0.002 μg/ml, titrated in 1%BSA/PBS). As a positive control polyclonal anti-human OSM antibody (R&D Systems) was also tested (20-0.02 μg/ml). A complex of gp130-Fc (Produced as below 300 ng/ml) and anti-human IgG alkaline phosphatase conjugate (1:500, Sigma) in 1% BSA/PBS (50 μl/well) was added immediately after the agents under test. Following a 5 h incubation (room temperature on a shaking platform) the plates were washed (×6) and developed using ELISA Amplification System (Life Technologies) as manufacturer's instructions and the OD measured at 490 nm. On each plate the total binding was determined by gp130-Fc/conjugate and OSM in the presence of 1% BSA/PBS, and non-specific binding by gp130-Fc/conjugate in absence of OSM, or conjugate binding to OSM in absence of gp130-Fc.
Mutant and wt OSM-GST were tested to obtain IC50 in 3-6 experiments. The mean OD in the presence of OSM and gp130-Fc in the absence of competing ligand (i.e., total binding) was 1.157 (range 0.825-1.807) and the non specific binding was less than 0.08.

[3] = test system: HepG2 B6 cells (STAT-sPAP reporter); test: OSM-GST mutant driven sPAP production in HepG2 B6 assay; assay type: cell-based, human; conditions: for 'Potency': relative to wild type, from Mean %
Procedure: as §1
The assay described in Example 7b above was employed. OSM-GST mutants were diluted to a concentration of 100 ng ml^−using the known concentration of intact OSM mutants generated in Example 9b. A wild type OSM-GST was included for control purposes. Dilutions were made in HepG2 B6 media with 1% heat inactivated FCS, low alkaline phosphatase activity. Serial 1:3 dilutions were then made. (100; 33.33; 11.11; 3.7; 1.23; 0.4 ng ml^−1). 3×10^4 HepG2 B6 were dispensed into individual well of a 96 well plate in 100 μl of media. Cells were allowed to equilibrate for 48 hours. Media was then removed and replaced with 100 μl of diluted OSM-GST mutant. Cells were incubated for a further 20 hours. Each dilution was performed in triplicate. 20 μl of media was removed and assayed for sPAP using pNPP as a substrate. Endogenous ALP was blocked with L-homoarginine. O.D. was read at 405-650 nm. The experiment was repeated twice.

| Molecule | inhibition of OSM-induced sPAP release ([1]; HepG2 B6) | IC50 ([1]; Homo sapiens, HepG2, 2 ng/ml OSM, 20 hours, read-out: IC50, inhibition of OSM-induced sPAP release) | selectivity for OSM over TNFα ([1]; from sPAP IC50 values) | inhibition of TNFα-induced sPAP release ([2]; A549 cells) | IC50 ([2]; Homo sapiens, A549, 3 ng/ml TNFα, 20 hours, read-out: approx. IC50, inhibition of TNFα-induced sPAP) | ability to compete with wt OSM for gp130 binding (gp130-Fc) | inhibition (gp130-Fc) | driving sPAP production [3] | 'Potency' [3] | Expt 1 EC50 [3] | Expt 2 EC50 [3] |
| --- | --- | --- | --- | --- | --- | --- | --- | --- | --- | --- | --- |
| O=C(Nc1ncnc2[nH]ncc12)c1ccccc1 [GW 340442X, N-(1H-pyrazolo[3,4-d]pyrimidin-4-yl)benzamide] | concentration-dependent inhibition | 0.3 µM | greater than 100 fold | limited inhibition | ~92 µM |  |  |  |  |  |  |
| B1 |  |  |  |  |  | substantial decrease | 66±2.3% | less effective at driving sPAP production; also recorded: didn't drive sPAP at all | NONE |  |  |
| B2 |  |  |  |  |  | substantial decrease |  | less effective at driving sPAP production; also recorded: didn't drive sPAP at all | NONE |  |  |
| B3 |  |  |  |  |  | substantial decrease |  |  | LESS (>120% Less potent than wild type) | 0.0379 µg/mL | 0.0497 µg/mL |
| B4 |  |  |  |  |  | substantial decrease | 15±8% | less effective at driving sPAP production; also recorded: didn't drive sPAP at all | NONE |  |  |
| B5 |  |  |  |  |  | substantial decrease |  |  | EQUAL (80-120% Equal potency) | 0.0302 µg/mL | 0.0362 µg/mL |
| B6 |  |  |  |  |  | substantial decrease |  |  | LESS (>120% Less potent than wild type) | 0.0657 µg/mL | 0.0549 µg/mL |
